This note sets out measurements from CN110156890A (UNIV SUZHOU, dated 2019).

One assay concerns the target T1, 小鼠Sema7A蛋白 (mouse, UniProt Q9QUR8 45-646).
T1 construct: Endogenous protein of mouse lung tissue, denatured on a western blot; also called Semaphorin7A
T1 sequence (looked up): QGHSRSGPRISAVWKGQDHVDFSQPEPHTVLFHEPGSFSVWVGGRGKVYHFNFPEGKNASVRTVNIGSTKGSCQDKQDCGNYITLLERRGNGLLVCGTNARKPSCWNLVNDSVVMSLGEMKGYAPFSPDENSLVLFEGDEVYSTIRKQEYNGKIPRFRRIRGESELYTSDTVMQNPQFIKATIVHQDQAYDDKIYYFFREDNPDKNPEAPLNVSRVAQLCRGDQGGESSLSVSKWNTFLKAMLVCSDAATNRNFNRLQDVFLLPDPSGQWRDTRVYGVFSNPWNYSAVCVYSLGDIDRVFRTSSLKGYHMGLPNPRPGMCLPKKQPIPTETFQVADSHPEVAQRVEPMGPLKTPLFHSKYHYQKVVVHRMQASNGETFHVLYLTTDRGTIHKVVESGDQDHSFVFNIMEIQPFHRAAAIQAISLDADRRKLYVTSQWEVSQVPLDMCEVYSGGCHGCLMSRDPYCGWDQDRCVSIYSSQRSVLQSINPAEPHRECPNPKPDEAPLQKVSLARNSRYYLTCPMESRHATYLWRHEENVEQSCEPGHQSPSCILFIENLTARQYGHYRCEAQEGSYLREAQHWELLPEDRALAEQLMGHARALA
The assay can be described thus: western blot of mouse lung tissue. For orientation: In western blotting, separated proteins are transferred to a membrane and probed.

Another assay addresses T2, Sema7A_truncated抗原蛋白 (mouse, UniProt Q9QUR8 59-219).
T2 construct: Truncated part of mouse Sema7A chosen for antigenicity, expressed in E. coli from pET28a; also called Sema7A-His; not shown: His tag from pET28a (Sema7A-His)
T2 sequence: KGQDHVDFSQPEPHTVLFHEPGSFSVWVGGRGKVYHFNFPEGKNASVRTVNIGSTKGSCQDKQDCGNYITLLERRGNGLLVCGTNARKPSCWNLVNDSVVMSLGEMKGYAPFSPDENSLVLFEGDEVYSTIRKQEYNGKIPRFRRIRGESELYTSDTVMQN
The assay can be described thus: ELISA, 1 ug antigen coated, antibody dilution series. On the technique in general: In an ELISA, binding on a coated surface is turned into a signal by an enzyme label.

B1: Semaphorin7A单克隆抗体2567-1 (antibody, V domains shown)
VH: QVQLQQSGAELVKPGASVKLSCKASGYTFTSYYMYWVKQRPGQGLEWIGEINPSNGDTNFNEKFKSKATLTVDKSSSTAYMQLSSLTSEDSAVYYCTTPARATFAYWGQGTLVTVSA
VL: DVVMTQTPLSLPVSLGDQASISCRSSQSLVHSNGNTYLHWYLQKPGQSPKLLIYKVSNRFSGVPDRFSGSGSGTDFTLKISRVEAEDLGVYFCSQSTHVPYTFGGGTKLEIK
notes: also called Sema7A抗体2567-1
Take B1: the binding result with 小鼠Sema7A蛋白 and with Sema7A_truncated抗原蛋白 was “binds” each time.
